# Values quoted from earlier work in publication PMC3393814.
# Molecular target: Nrf2 14mer peptide (Homo sapiens)
# Assay: ITC
substance,measurement,value
Keap1 (from UniProt Q14145),Kd,20 nM
